{"source": "paper PMC13104032", "about": "“Prion Protein-Derived Cell-Penetrating Peptide Inhibits Type II Diabetes-Associated Islet Amyloid Polypeptide Aggregation and Cytotoxicity” (Biochemistry, 2026)", "binders": {"B1": {"name": "NCAM1-PrP (NCAM1(1-19)-PrP(23-28)) cell-penetrating peptide construct (peptide)", "chain": "MLRTKDLIWTLFFLGTAVSKKRPKP-NH2", "notes": "also called NPr; CPP"}}, "target": "T1, human islet amyloid polypeptide (IAPP), C-terminally amidated (human, C-terminal amide)", "T1 construct": "islet amyloid polypeptide (amylin), human, the 37-residue peptide hormone, residues 1-37; numbers count on: the mature protein; also called amylin", "T1 chain": "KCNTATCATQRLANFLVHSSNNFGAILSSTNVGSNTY", "experiment": "native MS", "conditions": "both partners purified", "note": "No end group written: not given here."}
{"binder": "B1", "values": [{"measurement": "stoichiometry N", "value": 1}]}
